# Laboratory results taken from patent US20250215444.
# T1: Raptor1B fused N- or C-terminally to the GSrhino TAP tag, TAP-purified from PSB-D cell cultures
# T1 chain: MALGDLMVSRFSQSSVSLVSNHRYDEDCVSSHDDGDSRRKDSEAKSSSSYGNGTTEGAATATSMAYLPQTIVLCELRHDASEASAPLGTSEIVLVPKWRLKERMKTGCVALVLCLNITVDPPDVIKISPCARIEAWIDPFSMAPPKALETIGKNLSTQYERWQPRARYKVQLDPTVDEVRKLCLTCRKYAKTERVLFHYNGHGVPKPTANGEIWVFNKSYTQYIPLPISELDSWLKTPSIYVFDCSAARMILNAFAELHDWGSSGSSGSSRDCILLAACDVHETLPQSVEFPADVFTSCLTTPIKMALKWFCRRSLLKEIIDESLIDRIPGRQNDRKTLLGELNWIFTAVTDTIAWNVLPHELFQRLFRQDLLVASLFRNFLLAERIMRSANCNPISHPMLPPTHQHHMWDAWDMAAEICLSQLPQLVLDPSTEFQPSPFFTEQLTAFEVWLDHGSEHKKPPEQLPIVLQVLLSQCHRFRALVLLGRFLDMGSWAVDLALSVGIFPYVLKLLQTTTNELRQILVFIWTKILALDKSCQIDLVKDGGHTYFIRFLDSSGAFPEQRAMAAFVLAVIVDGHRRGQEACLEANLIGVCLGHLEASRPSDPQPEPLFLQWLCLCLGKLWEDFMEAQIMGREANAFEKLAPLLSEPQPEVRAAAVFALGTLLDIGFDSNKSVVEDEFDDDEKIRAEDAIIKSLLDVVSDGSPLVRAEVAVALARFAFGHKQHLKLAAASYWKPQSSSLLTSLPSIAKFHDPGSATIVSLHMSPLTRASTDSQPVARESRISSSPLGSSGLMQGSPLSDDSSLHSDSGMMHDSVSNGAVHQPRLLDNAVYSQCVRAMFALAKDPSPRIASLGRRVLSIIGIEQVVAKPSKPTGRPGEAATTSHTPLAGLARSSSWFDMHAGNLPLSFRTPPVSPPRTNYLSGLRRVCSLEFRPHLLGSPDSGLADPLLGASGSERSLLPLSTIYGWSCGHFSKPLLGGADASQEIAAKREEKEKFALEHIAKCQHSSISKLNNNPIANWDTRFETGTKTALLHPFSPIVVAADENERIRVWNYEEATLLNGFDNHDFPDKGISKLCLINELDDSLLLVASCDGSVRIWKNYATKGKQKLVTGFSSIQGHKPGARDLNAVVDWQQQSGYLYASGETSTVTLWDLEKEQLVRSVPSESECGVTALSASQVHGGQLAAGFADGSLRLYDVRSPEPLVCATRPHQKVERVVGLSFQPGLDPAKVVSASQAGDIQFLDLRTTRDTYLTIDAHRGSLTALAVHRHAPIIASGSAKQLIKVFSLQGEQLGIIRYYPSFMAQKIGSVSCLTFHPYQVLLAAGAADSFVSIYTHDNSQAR
# T2: LST8-1 fused C-terminally to the GSrhino tag, TAP-purified from PSB-D cell cultures, Q9LV27
# T2 chain: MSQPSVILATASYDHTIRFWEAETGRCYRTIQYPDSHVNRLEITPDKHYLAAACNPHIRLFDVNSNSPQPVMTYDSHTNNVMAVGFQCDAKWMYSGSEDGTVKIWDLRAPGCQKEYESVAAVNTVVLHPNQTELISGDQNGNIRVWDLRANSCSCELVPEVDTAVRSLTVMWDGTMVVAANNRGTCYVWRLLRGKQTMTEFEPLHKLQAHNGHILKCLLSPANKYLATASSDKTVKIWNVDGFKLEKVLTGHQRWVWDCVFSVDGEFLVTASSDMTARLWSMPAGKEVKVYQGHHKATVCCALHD
# B1: Recombinant RSK1 (ARSK1) kinase, His-MBP fusion produced in E. coli BL21 (protein)
# chain: MAVFKKKKTSLTSLFLGCYKAKNVSKYEGGEKAVMKIRTCPAFKRLSLSDISDPSSPMSVMDDLSHSFTSQKLRLFTLSELRVITHNFSRSNMLGEGGFGPVYKGFIDDKVKPGIEAQPVAVKALDLHGHQGHREWLAEILFLGQLSNKHLVKLIGFCCEEEQRVLVYEYMPRGSLENQLFRRNSLAMAWGIRMKIALGAAKGLAFLHEAEKPVIYRDFKTSNILLDSDYNAKLSDFGLAKDGPEGEHTHVTTRVMGTQGYAAPEYIMTGHLTTMNDVYSFGVVLLELITGKRSMDNTRTRREQSLVEWARPMLRDQRKLERIIDPRLANQHKTEAAQVAASLAYKCLSQHPKYRPTMCEVVKVLESIQEVDIRKHDGNNNKEGKKFVDINKFRHHRKGKRRVNIAYSDSLVYKESKAKQNDGI
# Columns and labels:
# [1] = biological target: T1, Raptor1B fused N- or C-terminally to …
# [2] = biological target: T2, LST8-1 fused C-terminally to the …
protein,measurement,setting,value
B1,"in vitro kinase assay with ATP-P32, SDS-PAGE and autoradiography",[1],"In the presence of ARSK1, the RAPTOR1B phosphosignal (lanes 2 and 3, rectangle) is higher compared to the control (lane 4; no ARSK1)"
same,in vitro kinase assay,[2],ARSK1 could not phosphorylate these two proteins
